From US20180339041A1 (Kyowa Kirin, published 2018)
Residue numbers refer to the chain shown, from its start. Names and notes keep the numbering of the source. Values joined by “and” are separate entries in the source; they are usually repeats but may differ in a detail not shown here. Equal values may be shown once.

T1: C-terminally FLAG-tagged human Gas6 recombinant protein (hGas6-F) (human, UniProt Q14393 31-678, gamma-carboxylated glutamic acid residues in the Gla domain (producer cells co-express rat VKOR and human GGCX); positions not given)
T1 construct: also called human Gas6-F; human Gas6 protein
T1 sequence: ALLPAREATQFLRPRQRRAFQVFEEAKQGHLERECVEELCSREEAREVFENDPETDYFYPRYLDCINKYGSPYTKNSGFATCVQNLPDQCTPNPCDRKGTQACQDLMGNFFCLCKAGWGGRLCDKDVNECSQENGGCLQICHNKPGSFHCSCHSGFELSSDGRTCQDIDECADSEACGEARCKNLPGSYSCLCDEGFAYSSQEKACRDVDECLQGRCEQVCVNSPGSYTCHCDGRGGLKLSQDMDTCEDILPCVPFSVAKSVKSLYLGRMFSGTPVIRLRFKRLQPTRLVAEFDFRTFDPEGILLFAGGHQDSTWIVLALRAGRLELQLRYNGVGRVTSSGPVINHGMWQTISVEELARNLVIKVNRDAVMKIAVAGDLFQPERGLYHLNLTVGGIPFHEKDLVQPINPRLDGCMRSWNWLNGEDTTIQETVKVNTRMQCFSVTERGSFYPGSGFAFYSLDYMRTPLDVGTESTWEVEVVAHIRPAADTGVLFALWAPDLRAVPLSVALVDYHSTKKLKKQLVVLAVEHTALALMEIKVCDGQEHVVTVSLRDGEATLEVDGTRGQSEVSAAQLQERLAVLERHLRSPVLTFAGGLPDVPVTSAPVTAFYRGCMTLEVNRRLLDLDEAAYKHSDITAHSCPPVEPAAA

B1: hzKM5321 LV6HV4a antibody (antibody, V domains shown)
VH: QIHLVQSGPELKKPGASVKISCKASGYTFTNYGMNWVRQAPGQGLEWMGWINTNTGEPTYTEEFKGRFVFSLDTSVTTAYLQISTLKAEDTAVYFCARDEGWFVYWGQGTLITVSS
VL: ETTLTQSPSSLSVSTGDRVTITCITSTDIDDDMNWYQQKPGKPPKLLISEGNTLRPGVPSRFSSSGSGTDFTLTISSTQPEDFADYYCLQTDSVPLTFGQGTKVEIK
notes: Humanized; variant human IgG4 constant region (EU S228P, L235E, R409K), human kappa; also called B-27; LV6HV4a
B2: hzKM5321 LV7aHV7 antibody (antibody, V domains shown)
VH: B1 VH with R38K, E46K, V93T
VL: B1 VL with L73F
notes: Humanized; variant human IgG4 constant region (EU S228P, L235E, R409K), human kappa; also called B-19; LV7aHV7
B3: hzKM5321 LV6HV7 antibody (antibody, V domains shown)
VH: B1 VH with R38K, E46K, V93T
VL: B1 VL
notes: Humanized; variant human IgG4 constant region (EU S228P, L235E, R409K), human kappa; also called B-18; LV6HV7
B4: hzKM5321 LV9HV0 antibody (antibody, V domains shown)
VH: B1 VH with I2V, P9S, A79S, I112V
VL: B1 VL with L4V, L73F, V104L
notes: Humanized; variant human IgG4 constant region (EU S228P, L235E, R409K), human kappa; also called B-11; LV9HV0
B5: hzKM5321 LV6HV4b antibody (antibody, V domains shown)
VH: B1 VH with I2V, R38K, E46K, A79S, V93T, I112V
VL: B1 VL
notes: Humanized; variant human IgG4 constant region (EU S228P, L235E, R409K), human kappa; also called B-28; LV6HV4b
B6: hzKM5320 LV0HV0 antibody (antibody, V domains shown)
VH: QVQLVQSGSELKKPGASVKVSCKASGYTFTNYGMNWVRQAPGQGLEWMGWINTETGEPTYSDDFKGRFVFSLDTSVSTAYLQISSLKAEDTAVYYCAREDGYYGTLDYWGQGTTVTVSS
VL: DVVMTQSPDSLAVSLGERVTINCKASQSVSNDVAWYQQKPGQSPKLLIYYASNRYTGVPDRFSGSGSGTDFTLTISSLQAEDVAVYYCQQDYSSPWTFGQGTKLEIK
notes: Humanized; variant human IgG4 constant region (EU S228P, L235E, R409K), human kappa; also called A-02
B7: hzKM5320 LV5HV2 antibody (antibody, V domains shown)
VH: B6 VH with V93T, Y95F
VL: B6 VL with V2I, L46V, L73F, L78V, Y87F
notes: Humanized; variant human IgG4 constant region (EU S228P, L235E, R409K), human kappa; also called kzKM5320 LV5HV2; A-20
B8: hzKM5320 LV1bHV0 antibody (antibody, V domains shown)
VH: B6 VH
VL: B6 VL with L78V
notes: Humanized; variant human IgG4 constant region (EU S228P, L235E, R409K), human kappa; also called A-04
B9: KM5321 chimeric antibody (antibody, V domains shown)
VH: QIQLVQSGPELKKPGETVKISCRASGYTFTNYGMNWVKQAPGKGLKWMGWINTNTGEPTYTEEFKGRFAFSLETSATTAYLQINDLKNEDTATYFCARDEGWFVYWGQGTLITVSA
VL: ETTVTQSPASLSVATGEKVTIRCITSTDIDDDMNWYQQKPGEPPKLLISEGNTLRPGVPSRFSSSGYGTDFVFTIENTLSEDVADYYCLQTDSVPLTFGAGTKLELK
notes: also called KM5321 chimera; B-01

How the values were obtained:
[1] = molecular target: T1, C-terminally FLAG-tagged human Gas6 …; experiment: SPR Biacore T100, captured antibody, Gas6 analyte, first test
Protocol: (§1) An anti-human IgG antibody was immobilized on a CM5 sensor chip (manufactured by GE Healthcare Japan Corp.) using Human Antibody Capture Kit (manufactured by GE Healthcare Japan Corp.) according to the attached manual. Each test antibody adjusted to 1 μg/mL was added for 10 seconds at a flow rate of 10 μL/min to flow cells. […] The measurement was performed by the […] method. The obtained sensorgram was analyzed using Bia Evaluation Software (manufactured by GE Healthcare Japan Corp.), and the kinetic constant of each antibody was calculated.

[2] = molecular target: T1, C-terminally FLAG-tagged human Gas6 …; experiment: as above; remark: listed apart in the source
Protocol: The measurement instrument used was Biacore® T100 (manufactured by GE Healthcare Japan Corp.).
as §1

[3] = molecular target: T1, C-terminally FLAG-tagged human Gas6 …; experiment: competitive ELISA, inhibition of hGas6-F binding to immobilised hAxl-hFc
[4] = molecular target: T1, C-terminally FLAG-tagged human Gas6 …; experiment: SPR Biacore T100, captured antibody, Gas6 analyte, retest
Protocol: as §1
In this retest, unlike the test mentioned above, the number of antibodies to be measured and variations in the concentration of the analyte were decreased, and the assay was conducted for a short time (within several hours), instead of sufficiently leaving standing the analyte added to the vial. […] This minimizes the adsorption of the analyte to the vial and permits more accurate calculation of ka and KD values than that in the test mentioned above.

[5] = molecular target: T1, C-terminally FLAG-tagged human Gas6 …; experiment: ELISA, hGas6-F captured by anti-FLAG, anti-human IgG-HRP
Protocol: First, 2 μg/mL anti-FLAG antibody [Monoclonal ANTI-FLAG M2 antibody produced in mouse (manufactured by Sigma-Aldrich Co. LLC) diluted with PBS (manufactured by Nacalai Tesque, Inc.)] was dispensed at 50 μL/well to a 96-well plate for ELISA (manufactured by Nalge Nunc International), and the plate was left standing overnight at 4° C. for adsorption. After removal of the immobilization solution, 1% BSA-PBS (manufactured by Nacalai Tesque, Inc.) was added thereto at 300 μL/well, and the plate was left standing at room temperature for 1 hour for blocking and washed five times with Tween 20-PBS (manufactured by Wako Pure Chemical Industries Ltd.).
In order to reduce the backgrounds of measurement values, the diluted secondary antibody solution was mixed with 50 μg/mL of an anti-DNP mouse IgG1 antibody and incubated at room temperature for 1 hour for use.

Row | Binder | Kd [1] [nM] | koff [1] | kon [1] [M⁻¹ s⁻¹] | fold increase of KD against the KM5320 chimeric antibody [2] [fold] | fold increase of kd against the KM5320 chimeric antibody [2] [fold] | IC50 [3] [µg/mL] | Kd [4] [nM] | koff [4] [s⁻¹] | kon [4] [M⁻¹ s⁻¹] | EC50 [5] [µg/mL]
1 | B1 | < 3.2 | 0.000341 s⁻¹ | > 106000 |  |  |  |  |  |  | 
2 | B2 | < 2.91 | 0.000299 s⁻¹ | > 103000 |  |  |  |  |  |  | 
3 | B3 | < 2.59 | 0.000281 s⁻¹ and 0.000278 s⁻¹ | > 107000 |  |  |  |  |  |  | 
4 | B4 | < 1.96 | 0.000247 s⁻¹ | > 126000 |  |  |  |  |  |  | 
5 | B5 | < 1.92 | 0.000204 s⁻¹ | > 106000 |  |  |  |  |  |  | 
6 | B6 | < 13.8 | 0.000924 s⁻¹ | > 66800 | ≥ 10 | ~6 |  |  |  |  | 
7 | B7 | < 2.13 | 0.000158 s⁻¹ | > 74300 |  |  | 0.0336 | 1.29 | 0.000197 | 152000 | 0.0122
8 | B8 | < 16 | 0.00115 s⁻¹ | > 72000 |  |  | 0.742 | 16.5 | 0.00149 | 90000 | 0.0191
9 | B9 | < 1.16 | 0.000141 s⁻¹ and 0.000137 s⁻¹ | > 121000 |  |  | 0.0123 | 0.202 | 7.66e-05 | 380000 | 0.00678
